Consider two molecules from patent US20240043559A1 (SHANGHAI HENLIUS BIOTECH, published 2024).

Experiment [1] addresses human GPC3 expressed endogenously on hepatoma cells (HepG2, Hep3B) (human) (UniProt P51654). In words: flow cytometry on Hep3B cells (endogenous GPC3). For orientation: Flow cytometry measures light scatter and fluorescence of single cells or particles in a stream.
For experiment [2], the target named is recombinant human GPC3 protein (human) (UniProt P51654). The experiment in a line: ELISA on plate-coated human GPC3. In general terms: An ELISA detects its analyte on a solid surface through an enzyme-linked reagent.
recombinant human GPC3 protein (human), sequence (P51654 other isoform, or with tags, fused parts or gaps limits assumed, form in doubt): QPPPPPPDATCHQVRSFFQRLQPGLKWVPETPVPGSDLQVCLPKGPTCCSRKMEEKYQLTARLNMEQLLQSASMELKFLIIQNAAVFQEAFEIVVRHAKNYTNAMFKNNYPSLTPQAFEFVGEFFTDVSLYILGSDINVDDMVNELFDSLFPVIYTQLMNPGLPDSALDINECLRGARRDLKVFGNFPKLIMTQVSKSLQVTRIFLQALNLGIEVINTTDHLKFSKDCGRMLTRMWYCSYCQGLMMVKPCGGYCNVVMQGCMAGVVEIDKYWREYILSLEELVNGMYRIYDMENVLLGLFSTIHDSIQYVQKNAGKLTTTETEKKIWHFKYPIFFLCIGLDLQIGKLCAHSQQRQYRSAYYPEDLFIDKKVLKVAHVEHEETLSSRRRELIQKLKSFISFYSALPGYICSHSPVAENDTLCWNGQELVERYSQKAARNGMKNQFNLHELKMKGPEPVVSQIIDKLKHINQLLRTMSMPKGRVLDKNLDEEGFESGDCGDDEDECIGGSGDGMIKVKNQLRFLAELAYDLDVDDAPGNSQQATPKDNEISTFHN
Experiment [3] concerns the target human GPC3 expressed endogenously on hepatoma cells (HepG2, Hep3B) (human) (UniProt P51654). In words: flow cytometry on HepG2 cells (endogenous GPC3).
Experiment [4] addresses T1, human GPC3 expressed endogenously on hepatoma cells (HepG2, Hep3B) (human, UniProt P51654 25-554).
T1 construct: also called GPC3 on HepG2; GPC3 on Hep3B
In words: flow cytometry on HepG2 cells (endogenous GPC3).

human GPC3 expressed endogenously on hepatoma cells (HepG2, Hep3B) (human), sequence (P51654 other isoform, or with tags, fused parts or gaps limits assumed, form in doubt): as above
T1 sequence (P51654 other isoform, or with tags, fused parts or gaps limits assumed, form in doubt): as above

As for HN3 VHH-Fc (Fc fusion), the EC50 (read off the curve) (in general, the concentration needed to bring the measured effect to its halfway point) in experiment [1] was 2 nM; in experiment [2], 0.02 µg/mL; in experiment [3], 2 nM.

B1: 1B01 llama-human chimeric bivalent VHH-Fc (Fc fusion)
chain: QVQLQESGGGLVQAGGSLRLSCAAVGLPFSNYAMGWFRQAPGEEREFVSAVSANGGNEYYADSVKDRFTISRDNAKNTVYLRMLSLKLEDTAIYYCATVRRRGGTFTVGSYRGQGTQVTVSS
notes: also called Clone 1B01; 1B01 llama VHH; not shown: human IgG1 Fc fused to the C-terminal of the VHH
With B1, in experiment [4], the 50% effective concentration (EC50 (read off the curve)) is around 0.3 nM.
